{"source": "patent US20230301999A1", "about": "“METHODS OF TREATING GOUT” (Horizon Therapeutics USA, Inc., priority 2020, published 2023)", "origin": "cited, not measured here", "key": {"[1]": {"test_system": "patients with gout", "details": "patients treated with allopurinol"}, "[2]": {"test_system": "hyperuricemic patients with symptomatic gout"}, "[3]": {"test_system": "patients receiving pegloticase"}, "[4]": {"details": "2 hemodialysis sessions; pre- and post-dialyzer samples"}, "[5]": {"details": "single IV infusions of 0.5 mg to 12 mg; 23 patients with symptomatic gout"}, "[6]": {"test_system": "subjects with refractory gout", "details": "doses of 4 to 12 mg; from 11.1±0.6 mg/dL"}, "[7]": {"test_system": "subjects with gout", "details": "Phase 2, 30-min administration in the majority"}, "[8]": {"test_system": "patients with refractory chronic gout", "details": "bi-weekly or every 4 weeks for up to 30 months"}, "[9]": {"details": "rat; during 7 days after injection"}, "[10]": {"test_system": "vacuolated cells", "details": "no associated clinical manifestations"}, "[11]": {"test_system": "patients with refractory chronic gout", "details": "Phase 2 program"}}, "note": "Like-named read-outs stand apart in the source and are kept apart here.", "data": [{"compound": "Oc1ncnc2[nH]ncc12", "note": "[allopurinol]", "values": [{"measurement": "patients developing allergic reactions", "setting": "[1]", "result": "Approximately 2%"}]}, {"compound": "pegloticase", "values": [{"measurement": "subjects with infusion reactions (IRs)", "setting": "[2]; 8 mg every 2 weeks, Phase 3, 120-min infusion, IR prophylaxis, no pre-infusion uric acid monitoring", "result": 26, "unit": "%"}, {"measurement": "subjects with infusion-related reactions", "setting": "[2]; 8 mg every 4 weeks, Phase 3", "result": 40, "unit": "%"}, {"measurement": "patients maintaining therapeutic response", "setting": "[2]; 6 months, pegloticase alone, previously reported", "result": 42, "unit": "%"}, {"measurement": "patients with IRs in whom loss of response (SUA≥6 mg/dL) preceded the first IR", "setting": "[2]; 20/21 patients", "result": 95, "unit": "%"}, {"measurement": "subjects with anaphylaxis", "setting": "[2]; Phase 3, 120-min infusion, IR prophylaxis", "result": 5, "unit": "%"}, {"measurement": "IR rate", "setting": "[2]; clinical practice/studies with a uric acid monitoring protocol", "result": "about 8%"}, {"measurement": "patients with antibody titer exceeding 1:2430 maintaining response", "setting": "[3]; 7 of 65, another study", "result": 10.8, "unit": "%"}, {"measurement": "patients with titers exceeding 1:2430 developing IRs", "setting": "[3]; 31 of 52", "result": 60, "unit": "%"}, {"measurement": "patients never having antibody titer above 1:2430 maintaining response", "setting": "[3]; 58/65, another study", "result": 89.2, "unit": "%"}, {"measurement": "participants with high titers developing IR", "setting": "[3]; second study", "result": 60, "unit": "%"}, {"measurement": "removal by dialysis", "setting": "[4]", "result": "not removed by the dialysis process"}, {"measurement": "maximum serum concentrations vs dose", "setting": "[5]", "result": "increased in proportion to the dose administered"}, {"measurement": "pUAc after fall, mean±SD", "setting": "[6]", "result": "1.0±0.5", "unit": "mg/dL"}, {"measurement": "anaphylaxis", "setting": "[7]", "result": "no subjects experienced anaphylaxis"}, {"measurement": "subjects experiencing an IR", "setting": "[7]; no MTX, majority without IR prophylaxis", "result": 44, "unit": "%"}, {"measurement": "long-term safety", "setting": "[8]", "result": "No new safety signals were observed"}, {"measurement": "dose excreted in the urine", "setting": "[9]", "result": "Approximately 70%"}, {"measurement": "finding in chronic toxicology studies", "setting": "[10]", "result": "dose-dependent increase in vacuolated cells"}, {"measurement": "stability diluted in infusion bags", "setting": "2° C. to 8° C.", "result": 4, "unit": "h"}, {"measurement": "stability diluted in infusion bags", "setting": "room temperature (20° C. to 25° C.)", "result": 4, "unit": "h"}, {"measurement": "dose-response plateau dose", "setting": "[11]", "result": 12, "unit": "mg"}, {"measurement": "minimally effective dose", "setting": "[11]", "result": 4, "unit": "mg"}, {"measurement": "safe and optimally effective dose", "setting": "[11]", "result": 8, "unit": "mg"}]}]}
